Data published in US20160304584, “MAFB MUTANTS AND USES THEREOF” (INSERM (INSTITUT NATIONAL DE LA SANTÉ ET DE LA …, published 2016).

Key:
[1] = target: MafB (E269R)/c-Fos heterodimer (UniProt P54841;P01101 P54841:211-305,P01101:138-200, MafB E269R); assay: EMSA; exclusive heterodimer even at residual c-Fos; conditions: label: 32P
Experimental: (§1) Double-stranded synthetic oligonucleotides corresponding to the T-MARE(a) ([…]) (SEQ ID NO:5), to T-MARE(beta) ([…]) (SEQ ID NO:6) or to T-MARE(y) ([…]) (SEQ ID NO:7) sites were incubated with Klenow fragment DNA polymerase in the presence of [α³²P][…] and purified on Qiaquick Spin Columns (Qiagen). Increasing amount (0.25 to 64 pmol) of recombinant c-Fos and recombinant protein (4 pmol) of MafB (wt) or MafB (E269R) and MafB (V277N) mutants were incubated with 0.05 ng of probe in 20 μL of binding reaction buffer (20 mM Tris-HCl (pH 7.5), 100 mM KCl, 0.1 mM EDTA, 5% glycerol, 0.1% Triton X-100, 0.02% BSA, […] poly d[I-C]) for 20 min. Complexes formed were resolved on a 6% polyacrylamide (acrylamide/bisacrylamide ratio, 29:1) non-denaturating gel (Bio-Rad) in 0.5% Tris-glycine. Gels were dried and autoradiographed at −80° C.

[2] = target: MafB (V277N)/c-Fos heterodimer (UniProt P54841;P01101 P54841:211-305,P01101:138-200, MafB V277N); assay: EMSA; binding unchanged versus wt; conditions: label: 32P
Sequence of MafB (V277N)/c-Fos heterodimer (P54841 211-305 V277N, chain 1 of 2): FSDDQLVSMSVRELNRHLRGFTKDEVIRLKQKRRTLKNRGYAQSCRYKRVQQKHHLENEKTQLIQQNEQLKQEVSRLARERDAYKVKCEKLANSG
Sequence of MafB (V277N)/c-Fos heterodimer (P01101 138-200, stated change not applied, chain 2 of 2): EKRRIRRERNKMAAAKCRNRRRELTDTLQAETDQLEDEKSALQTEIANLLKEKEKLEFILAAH
Experimental: as §1

[3] = target: T1, MafB (wt)/c-Fos heterodimer (UniProt P54841;P01101 P54841:211-305,P01101:138-200); assay: EMSA; strongly preferred over homodimer; conditions: label: 32P
T1 sequence (P54841 211-305, chain 1 of 2): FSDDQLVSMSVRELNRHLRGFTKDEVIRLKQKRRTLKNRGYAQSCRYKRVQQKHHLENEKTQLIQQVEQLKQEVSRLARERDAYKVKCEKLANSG
T1 sequence (P01101 138-200, chain 2 of 2): as the sequence (P01101 138-200, stated change not applied, chain 2 of 2) above
Experimental: as §1

[4] = target: MafB (E269R) full-length with c-Fos (UniProt P54841;P01101 P54841:1-323,P01101:1-380, MafB E269R); assay: cell_activity; luciferase, HEK293, with c-Fos
Sequence of MafB (E269R) full-length with c-Fos (P54841 whole entry E269R, chain 1 of 2): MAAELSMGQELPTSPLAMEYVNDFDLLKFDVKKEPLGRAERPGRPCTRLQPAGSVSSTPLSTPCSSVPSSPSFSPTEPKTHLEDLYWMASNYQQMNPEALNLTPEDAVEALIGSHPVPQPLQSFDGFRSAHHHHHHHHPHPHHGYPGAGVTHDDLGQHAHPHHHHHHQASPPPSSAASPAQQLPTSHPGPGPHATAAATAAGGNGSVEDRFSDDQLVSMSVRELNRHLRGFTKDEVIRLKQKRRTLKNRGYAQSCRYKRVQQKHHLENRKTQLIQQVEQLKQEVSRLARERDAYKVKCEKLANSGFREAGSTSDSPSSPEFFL
Sequence of MafB (E269R) full-length with c-Fos (P01101 whole entry, stated change not applied, chain 2 of 2): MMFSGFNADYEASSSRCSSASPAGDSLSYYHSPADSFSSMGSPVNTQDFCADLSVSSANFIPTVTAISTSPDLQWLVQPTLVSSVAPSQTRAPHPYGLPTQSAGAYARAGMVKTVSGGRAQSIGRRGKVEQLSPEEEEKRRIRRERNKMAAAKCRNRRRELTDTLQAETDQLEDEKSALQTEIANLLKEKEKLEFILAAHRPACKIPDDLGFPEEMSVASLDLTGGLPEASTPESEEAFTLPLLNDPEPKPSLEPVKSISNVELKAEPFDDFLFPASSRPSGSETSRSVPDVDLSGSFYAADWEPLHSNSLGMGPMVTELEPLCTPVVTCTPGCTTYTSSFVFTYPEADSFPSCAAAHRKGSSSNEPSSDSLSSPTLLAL
Experimental: HEK293 cells were grown in Dulbecco's modified eagle's medium supplemented with 10% fetal bovine serum in six-well plates to reach 60-80% confluence at the time of transfection. DNA was transfected by calcium phosphate precipitation procedure as previously described (Sieweke et al., 1996). pTK81 luciferase reporter constructs (200 ng) (Promega) containing three multimerized T-MARE(alpha) ([…] CA […]), T-MARE(beta) ([…] CA […]), or T-MARE (y) ([…] […]) were cotransfected with 200 ng of Rc/CMV (Invitrogen) constructs driving the expression of wt and mutant full-length MafB with or without 200 ng of Rc/CMV construct driving the expression of c-Fos or no transgene (vector control). Assays were performed in duplicate. The transfection efficiency was normalized by assaying for β-galactosidase activity from a cotransfected CVM-LacZ construct, and luciferase activity was analyzed as previously described (Sieweke et al., 1996). […] The transfection efficiency was normalized, by assaying for β-galactosidase activity from a cotransfected CVM-LacZ construct, and luciferase activity was analyzed using a dual-luciferase reporter assay system (Promega, Cat: E1910) according to the manufacturer's recommendations.

[5] = target: T1, MafB (wt)/c-Fos heterodimer; assay: EMSA; no significant heterodimer detected; conditions: label: 32P
Experimental: as §1

MafB (wt) homodimer [6] = target: T2, MafB (wt) homodimer (UniProt P54841 SEQ:211-305); assay: EMSA; only homodimer bound; conditions: chain copies: 2; label: 32P
T2 sequence (P54841 211-305): as the sequence (P54841 211-305, chain 1 of 2) above
Experimental: as §1

MafB (V277N) homodimer = MafB (V277N) homodimer (UniProt P54841 SEQ:211-305, V277N); assay: EMSA; no enhanced site selection compared with wt; conditions: chain copies: 2; label: 32P
Sequence of MafB (V277N) homodimer (P54841 211-305 V277N): as the sequence (P54841 211-305 V277N, chain 1 of 2) above
Experimental: as §1

[7] = target: MafB (wt) fragment 211-305 C298S, homodimer (Mus musculus, UniProt P54841 SEQ:211-305, C298S); assay: structure; 2.9 A crystal structure; 50 mM MgCl2 in complex buffer; conditions: chain copies: 2
Sequence of MafB (wt) fragment 211-305 C298S, homodimer (P54841 211-305 C298S): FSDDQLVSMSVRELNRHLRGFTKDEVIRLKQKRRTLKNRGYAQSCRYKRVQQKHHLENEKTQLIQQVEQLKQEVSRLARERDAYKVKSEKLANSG
Experimental: The C-terminal region of MafB from Mus musculus (residues 211-305, C298S) was purified as previously described (Textor et al., 2007). Homodimeric MafB₂ complexes were dialyzed overnight into 30 mM Tris-HCl (pH 7.3), 80 mM NaCl, 50 mM MgCl₂ and 3 mM β-mercaptoethanol at room temperature in the presence of an oligonucleotide encompassing the T-MARE-binding site (forward: […] (SEQ ID NO:3); reverse: […] (SEQ ID NO:4), METABION). The protein-DNA complex was further purified by size exclusion chromatography on a Superdex-75 (16/60) column (GE), equilibrated with the dialysis buffer. The pooled peak fractions corresponding to the (MafB)₂/T-MARE complex were analyzed by SDS-PAGE and native PAGE gels and concentrated to 5 mg/mL, using a centrifugal concentrator with a polyethersulfone membrane with a 10,000 MWCO (VIVASPIN, Sartorius Stedim Biotech). Crystallization drops of 400 nL volume, using a 1:1 protein/mother liquor ratio, were set up in 96-well sitting-drop plates and allowed to equilibrate at 19° C. Diffracting crystals grew in the presence of 0.1 M Na-citrate (pH 5.0), 15% [w/v] PEG-4000, 5% [v/v] PEG-400, and 0.1 M MgCl₂.

[8] = target: T1, MafB (wt)/c-Fos heterodimer; assay: EMSA; comparable to homodimer at equimolar ratio; favoured with excess c-Fos; conditions: label: 32P
Experimental: as §1

MafB (wt) homodimer [9] = target: T2, MafB (wt) homodimer; assay: EMSA; comparable to heterodimer at equimolar c-Fos; favoured with excess MafB; conditions: chain copies: 2; label: 32P
Experimental: as §1

Sequence of MafB (E269R)/c-Fos heterodimer (P54841 211-305 E269R, chain 1 of 2): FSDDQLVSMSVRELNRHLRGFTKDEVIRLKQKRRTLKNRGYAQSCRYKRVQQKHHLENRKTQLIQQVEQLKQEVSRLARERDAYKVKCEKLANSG
Sequence of MafB (E269R)/c-Fos heterodimer (P01101 138-200, stated change not applied, chain 2 of 2): as the sequence (P01101 138-200, stated change not applied, chain 2 of 2) above

B1: T-MARE(beta) (dsDNA)
DNA 1: TCGTCCCCTCCTATGAGTCAGCAATTCTC
DNA 2: GAGAATTGCTGACTCATAGGAGGGGACGA
[1]
  binding result: binds
[2]
  binding result: binds
[3]
  binding result: binds

B2: T-MARE(beta) x3 reporter (dsDNA)
DNA 1: TCGACCTCCCCTCCTATGAGTCAGCAATTCTCTCGAGCTCCCCTCCTATGAGTCAGCAATTCTCTCGAGCTCCCCTCCTATGAGTCAGCAATTCTCGTCGACCC
DNA 2: GGGTCGACGAGAATTGCTGACTCATAGGAGGGGAGCTCGAGAGAATTGCTGACTCATAGGAGGGGAGCTCGAGAGAATTGCTGACTCATAGGAGGGGAGGTCGA
[4]
  activity: 5 fold vs wt

B3: T-MARE(gamma) (dsDNA)
DNA 1: TCGTCCCTTATGCCTACTAGGCAATTCTC
DNA 2: GAGAATTGCCTAGTAGGCATAAGGGACGA
[5]
  binding result: no binding
MafB (wt) homodimer [6]
  binding result: binds
MafB (V277N) homodimer
  binding result: binds

B4: T-MARE 20-bp (dsDNA)
DNA 1: TAATTGCTGACTCAGCAATT
DNA 2: TAATTGCTGAGTCAGCAATT
[7]
  binding result: binds

B5: T-MARE(alpha) (dsDNA)
DNA 1: TCGTCCCTTATGCTGACTCAGCAATTCTC
DNA 2: GAGAATTGCTGAGTCAGCATAAGGGACGA
[8]
  binding result: binds
MafB (wt) homodimer [9]
  binding result: binds
